Laboratory results from publication PMC3699631, “Posttranslational Modifications of the Histone 3 Tail and Their Impact on the Activity of Histone Lysine Demethylases In Vitro” (PLoS ONE, 2013).

Biological target: T1, human cc-KDM4C (Homo sapiens, UniProt Q9H3R0)
T1 construct: Truncated constructs of KDM4A and KDM4C containing only the catalytic cores (cc-KDM4A/cc-KDM4C); made in house
T1 sequence (Q9H3R0 1-349 limits assumed): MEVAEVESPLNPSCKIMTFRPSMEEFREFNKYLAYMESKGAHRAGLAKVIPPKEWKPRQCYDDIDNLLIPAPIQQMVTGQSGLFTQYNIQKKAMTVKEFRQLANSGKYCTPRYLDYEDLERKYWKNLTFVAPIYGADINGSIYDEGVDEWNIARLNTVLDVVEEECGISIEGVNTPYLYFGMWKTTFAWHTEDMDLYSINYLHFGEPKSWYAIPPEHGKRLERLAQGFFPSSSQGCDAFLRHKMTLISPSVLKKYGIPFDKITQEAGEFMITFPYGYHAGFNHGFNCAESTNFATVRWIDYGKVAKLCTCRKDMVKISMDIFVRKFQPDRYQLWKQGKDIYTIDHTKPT
Experiment: FDH-assay enzyme kinetics of H3 peptide demethylation, truncated KDM4C
Format: biochemical
Conditions: for K m / k cat / k cat /K m / demethylation / catalytic activity (in words): FDH-assay; for K m: 50 mM HEPES (pH 7.5), 50 mM NaCl, 50 µM FeSO4, 500 µM α-KG, 500 µM ascorbate, 2 mM NAD, substrate 10–1000 µM, e.g. 4.88 µM KDM4C, NADH fluorescence 15–30 minutes; for K m / k cat: triplicate; for k cat: pH 7.5, NADH fluorescence; for k cat /K m: pH 7.5, triplicate; for demethylation / catalytic activity (in words): compared to H3(1–24)K9me3 where a change is stated
Experimental: The enzyme kinetics were measured using a Formaldehyde DeHydrogenase Assay (FDH-Assay) and the demethylation of substrates was confirmed when possible by MALDI-TOF-MS, see File S1 for details. The test solution contained 50 mM HEPES (pH 7.5), 50 mM NaCl, 50 µM FeSO4, 500 µM α-KG, 500 µM ascorbate, 2 mM NAD, approximately 0.05 unit of FDH and e.g. 4.88 µM KDM4C (enzyme concentration varied between batches). The reference solution was comprised of the same except substrate. The assay was initiated by adding various concentrations of H3 peptide substrates e.g. H3(1–24)K9me3 (10–1000 µM) and the increase in NADH fluorescence was measured over 15–30 minutes in 30 second intervals. Data analysis and kinetic values were obtained using programs Excel and GraphPad Prism® 5.0. For details, see File S1.
(§1) The standard deviations for k cat/K m were calculated using the statistic law of propagation of errors. Standard errors for Michaelis-Menten Kinetics were automatically given in GraphPad Prism®, with a 95% confidence interval. All enzyme kinetic curves were done in triplicate unless otherwise stated.
Test for activity of enzyme using the fluorescence FDH assay, determination of Vmax and Km of enzymes with substrate, expression and purification of cc-KDM4A and cc-KDM4C software and parameters for the FDH coupled assay, see Lohse et al.^21
as §1, with “kcat/ Km” for “k cat/K m”, “95 %” for “95%”

[1] = SD by propagation of errors, unit: (min^−1 * µM^−1) * 10^3

H3(1–24)K9me2: truncated histone tail, 24 first amino acids from the N-terminus of H3, dimethylated lysine 9
K m: 79±10 | k cat: 0.1±0.01 | k cat /K m [1]: 1.3±0.2

H3(1–24)K9me3T11(ph): H3(1–24)K9me3 with phosphorylation of threonine 11
demethylation / catalytic activity (in words): no detectable turnover

H3(1–24)K9me3: truncated histone tail, 24 first amino acids from the N-terminus of H3, trimethylated lysine 9; control peptide
K m: 55±11 | k cat: 0.5±0.04 | k cat /K m [1]: 9±1 | k cat /K m (figures): 9 ± 1 min^-1 * μM^-1 * 10^3

H3(1–24)K4me3K9me3: bis-tri-methylated substrate, trimethylated K4 in combination with H3K9me3
K m: 70±13 | demethylation / catalytic activity (in words): an increase of the enzymatic catalytic efficiency | k cat: 1.2±0.1 | k cat /K m [1]: 17±2 | fold increase in k cat/K m (compared to H3(1–24)K9me3): 2 fold | k cat /K m (figures): 17 ± 2 min^-1 * μM^-1 * 10^3
